Reference: US20210380703A1

biological target: human Fc (human); assay: ELISA, negative control

Binder | optical density [OD]
371_B04 (antibody, V domains shown) VH: EVQLLESGGGLVQPGGSLRLSCAASGFTFSSYSMNWVRQAPGKGLEWVSGINYNGGYKSYADSVKGRFTISRDNSKNTLYLQMNSLRAEDTAVYYCARGANWHDTALDYWGQGTLVTVSS VL: DIQMTQSPSSLSASVGDRVTITCRASQSILSYLNWYQQKPGKAPKLVIYAVTSRHSGVPSRFSGSGSGTDFTLTISSLQPEDFATYYCQQSYDSPLTFGGGTKVEIK | 0.295
371_C12 (antibody, V domains shown) VH: EVQLLESGGGLVQPGGSLRLSCAASGFTFSSYSMNWVRQAPGKGLEWVAGINYNSGYKSYADSVKGRFTISRDNSKNTLYLQMNSLRAEDTAVYYCARGANWHDTHLDYWGQGTLVTVSS VL: DIQMTQSPSSLSASVGDRVTITCRASQSIVSYVNWYQQKPGKAPKLLIYAATSRASGVPSRFSGSGSGTDFTLTISSLQPEDFATYYCQQSYDTPLTFGGGTKVEIK | 0.544
371_B09 (antibody, V domains shown) VH: EVQLLESGGGLVQPGGSLRLSCAASGFTFSSYSMNWVRQAPGKGLEWVAGINYNSGYTGYADSVKGRFTISRDNSKNTLYLQMNSLRAEDTAVYYCARGANWHDTHLDYWGQGTLVTVSS VL: DIQMTQSPSSLSASVGDRVTITCRASQSILSYVNWYQQKPGKAPKLVIYATTSLASGVPSRFSGSGSGTDFTLTISSLQPEDFATYYCQQSYDTPLTFGGGTKVEIK | 0.292
371_E06 (antibody, V domains shown) VH: EVQLLESGGGLVQPGGSLRLSCAASGFTFSSYSMNWVRQAPGKGLEWVSGINYNGGYTSYADSVKGRFTISRDNSKNTLYLQMNSLRAEDTAVYYCARGANWHDTALDYWGQGTLVTVSS VL: DIQMTQSPSSLSASVGDRVTITCRASQSISTYLNWYQQKPGKAPKLLIYAVTSLHSGVPSRFSGSGSGTDFTLTISSLQPEDFATYYCQQSYESPLTFGGGTKVEIK | 0.33
371_D02 (antibody, V domains shown) VH: EVQLLESGGGLVQPGGSLRLSCAASGFTFDDYSMNWVRQAPGKGLEWVAGINYNGGYKSYADSVKGRFTISRDNSKNTLYLQMNSLRAEDTAVYYCARGANWHDTALDYWGQGTLVTVSS VL: DIQMTQSPSSLSASVGDRVTITCRASQSIVTYLNWYQQKPGKAPKLLIYAATSRASGVPSRFSGSGSGTDFTLTISSLQPEDFATYYCQQSYDSPLTFGGGTKVEIK | 0.385
371_F11 (antibody, V domains shown) VH: EVQLLESGGGLVQPGGSLRLSCAASGFTFSSYSMNWVRQAPGKGLEWVSGINYNGGYTSYADSVKGRFTISRDNSKNTLYLQMNSLRAEDTAVYYCARGANWHDTALDYWGQGTLVTVSS VL: DIQMTQSPSSLSASVGDRVTITCRASQSIISYVNWYQQKPGKAPKLLIYAVTSRASGVPSRFSGSGSGTDFTLTISSLQPEDFATYYCQQSYDLPLTFGGGTKVEIK | 0.331
371_F10 (antibody, V domains shown) VH: EVQLLESGGGLVQPGGSLRLSCAASGFTFDSYGMNWVRQAPGKGLEWVSGINYNSGYTSYADSVKGRFTISRDNSKNTLYLQMNSLRAEDTAVYYCARGANWHDTALDYWGQGTLVTVSS VL: DIQMTQSPSSLSASVGDRVTITCRASQSISSYLNWYQQKPGKAPKLVIYAVTSRASGVPSRFSGSGSGTDFTLTISSLQPEDFATYYCQQSYESPLTFGGGTKVEIK | 0.299
371_G11 (antibody, V domains shown) VH: EVQLLESGGGLVQPGGSLRLSCAASGFTFSSYGMNWVRQAPGKGLEWVSNINYNSGYTSYADSVKGRFTISRDNSKNTLYLQMNSLRAEDTAVYYCARGANWHDTALDYWGQGTLVTVSS VL: DIQMTQSPSSLSASVGDRVTITCRASQSILSYVNWYQQKPGKAPKLLIYAATSLASGVPSRFSGSGSGTDFTLTISSLQPEDFATYYCQQSYDSPLTFGGGTKVEIK | 0.399
371_H06 (antibody, V domains shown) VH: EVQLLESGGGLVQPGGSLRLSCAASGFTFDSYGMNWVRQAPGKGLEWVSGINYNGGYTSYADSVKGRFTISRDNSKNTLYLQMNSLRAEDTAVYYCARGANWHDTALDYWGQGTLVTVSS VL: DIQMTQSPSSLSASVGDRVTITCRASQSISSYLNWYQQKPGKAPKLVIYAVTSRASGVPSRFSGSGSGTDFTLTISSLQPEDFATYYCQQSYDLPLTFGGGTKVEIK | 0.346
371_E07 (antibody, V domains shown) VH: EVQLLESGGGLVQPGGSLRLSCAASGFTFDSYSMNWVRQAPGKGLEWVAGINYNGGYTSYADSVKGRFTISRDNSKNTLYLQMNSLRAEDTAVYYCARGANWHDTALDYWGQGTLVTVSS VL: DIQMTQSPSSLSASVGDRVTITCRASQSIISYLNWYQQKPGKAPKLLIYAATSLASGVPSRFSGSGSGTDFTLTISSLQPEDFATYYCQQSYESPLTFGGGTKVEIK | 0.337
371_E10 (antibody, V domains shown) VH: EVQLLESGGGLVQPGGSLRLSCAASGFTFDSYSMNWVRQAPGKGLEWVAGINYNGGYTSYADSVKGRFTISRDNSKNTLYLQMNSLRAEDTAVYYCARGANWHDTALDYWGQGTLVTVSS VL: DIQMTQSPSSLSASVGDRVTITCRASQSISTYLNWYQQKPGKAPKLLIYAVTSRASGVPSRFSGSGSGTDFTLTISSLQPEDFATYYCQQSYNSPLTFGGGTKVEIK | 0.341
371_G04 (antibody, V domains shown) VH: EVQLLESGGGLVQPGGSLRLSCAASGFTFDSYSMNWVRQAPGKGLEWVSGINYNGGYKSYADSVKGRFTISRDNSKNTLYLQMNSLRAEDTAVYYCARGANWHDTALDYWGQGTLVTVSS VL: DIQMTQSPSSLSASVGDRVTITCRASQSILSYLNWYQQKPGKAPKLLIYAATSLHSGVPSRFSGSGSGTDFTLTISSLQPEDFATYYCQQSYESPLTFGGGTKVEIK | 0.325
371_H05 (antibody, V domains shown) VH: EVQLLESGGGLVQPGGSLRLSCAASGFTFSSYGMNWVRQAPGKGLEWVSGINYNSGYKSYADSVKGRFTISRDNSKNTLYLQMNSLRAEDTAVYYCARGANWHDTALDYWGQGTLVTVSS VL: DIQMTQSPSSLSASVGDRVTITCRASQSIISYLNWYQQKPGKAPKLLIYAATSLASGVPSRFSGSGSGTDFTLTISSLQPEDFATYYCQQSYSLPLTFGGGTKVEIK | 0.321
367_F06 (antibody, V domains shown) VH: EVQLLESGGGLVQPGGSLRLSCAASGFTFSSYGMNWVRQAPGKGLEWVSSINYNSGYTSYADSVKGRFTISRDNSKNTLYLQMNSLRAEDTAVYYCARAANWHDTALDYWGQGTLVTVSS VL: DIQMTQSPSSLSASVGDRVTITCRASQSISSYVNWYQQKPGKAPKLLIYAVTSRASGVPSRFSGSGSGTDFTLTISSLQPEDFATYYCQQSYDSPLTFGGGTKVEIK | 0.265
371_B12 (antibody, V domains shown) VH: EVQLLESGGGLVQPGGSLRLSCAASGFTFSDYSMNWVRQAPGKGLEWVAGINYNSGYTSYADSVKGRFTISRDNSKNTLYLQMNSLRAEDTAVYYCARGANWHDTALDYWGQGTLVTVSS VL: DIQMTQSPSSLSASVGDRVTITCRASQSIVTYLNWYQQKPGKAPKLVIYAATSRHSGVPSRFSGSGSGTDFTLTISSLQPEDFATYYCQQSYNNPLTFGGGTKVEIK | 0.378
371_C05 (antibody, V domains shown) VH: EVQLLESGGGLVQPGGSLRLSCAASGFTFSDYGMHWVRQAPGKGLEWVANINYNGGYTGYADSVKGRFTISRDNSKNTLYLQMNSLRAEDTAVYYCARGANWHDTALDYWGQGTLVTVSS VL: DIQMTQSPSSLSASVGDRVTITCRASQSILSYLNWYQQKPGKAPKLLIYAATSRASGVPSRFSGSGSGTDFTLTISSLQPEDFATYYCQQSYDSPLTFGGGTKVEIK | 0.269
371_G02 (antibody, V domains shown) VH: EVQLLESGGGLVQPGGSLRLSCAASGFTFDSYGMNWVRQAPGKGLEWVASINYNGGYTSYADSVKGRFTISRDNSKNTLYLQMNSLRAEDTAVYYCARGANWHDTHLDYWGQGTLVTVSS VL: DIQMTQSPSSLSASVGDRVTITCRASQSILSYLNWYQQKPGKAPKLLIYAATSRASGVPSRFSGSGSGTDFTLTISSLQPEDFATYYCQQSYDLPLTFGGGTKVEIK | 0.514
367_D11 (antibody, V domains shown) VH: EVQLLESGGGLVQPGGSLRLSCAASGFTFDSYGMHWVRQAPGKGLEWVSNINYNGGYKSYADSVKGRFTISRDNSKNTLYLQMNSLRAEDTAVYYCARAANWHDTALDYWGQGTLVTVSS VL: DIQMTQSPSSLSASVGDRVTITCRASQSIISYLNWYQQKPGKAPKLLIYAATSRASGVPSRFSGSGSGTDFTLTISSLQPEDFATYYCQQSYDSPLTFGGGTKVEIK | 0.304
371_G09 (antibody, V domains shown) VH: EVQLLESGGGLVQPGGSLRLSCAASGFTFSSYSMNWVRQAPGKGLEWVANINYNGGYTGYADSVKGRFTISRDNSKNTLYLQMNSLRAEDTAVYYCARGANWHDTALDYWGQGTLVTVSS VL: DIQMTQSPSSLSASVGDRVTITCRASQSILSYLNWYQQKPGKAPKLVIYAATSRASGVPSRFSGSGSGTDFTLTISSLQPEDFATYYCQQSDSTPLTFGGGTKVEIK | 0.315
371_D04 (antibody, V domains shown) VH: EVQLLESGGGLVQPGGSLRLSCAASGFTFDDYSMNWVRQAPGKGLEWVAGINYNGGYTGYADSVKGRFTISRDNSKNTLYLQMNSLRAEDTAVYYCARGANWHDTHLDYWGQGTLVTVSS VL: DIQMTQSPSSLSASVGDRVTITCRASQSIVSYVNWYQQKPGKAPKLLIYAATSLASGVPSRFSGSGSGTDFTLTISSLQPEDFATYYCQQSYENPLTFGGGTKVEIK | 0.276
371_H04 (antibody, V domains shown) VH: EVQLLESGGGLVQPGGSLRLSCAASGFTFSSYGMNWVRQAPGKGLEWVSNINYNGGYTGYADSVKGRFTISRDNSKNTLYLQMNSLRAEDTAVYYCARGANWHDTALDYWGQGTLVTVSS VL: DIQMTQSPSSLSASVGDRVTITCRASQSILTYLNWYQQKPGKAPKLLIYAATSRASGVPSRFSGSGSGTDFTLTISSLQPEDFATYYCQQSYNSPLTFGGGTKVEIK | 0.35
371_C01 (antibody, V domains shown) VH: EVQLLESGGGLVQPGGSLRLSCAASGFTFSSYGMHWVRQAPGKGLEWVSSINYNGGYTGYADSVKGRFTISRDNSKNTLYLQMNSLRAEDTAVYYCARGANWHDTHLDYWGQGTLVTVSS VL: DIQMTQSPSSLSASVGDRVTITCRASQSIVSYLNWYQQKPGKAPKLLIYAATSRHSGVPSRFSGSGSGTDFTLTISSLQPEDFATYYCQQSYDNPLTFGGGTKVEIK | 0.402
